Holding throughout (format): protein assay
Substrate in data set [1]: O=[N+]([O-])c1ccc(O[C@H]2O[C@H](CO)[C@@H](O)[C@H](O)[C@@H]2O)cc1
Put plainly: (§1) Ratio of Kcat to Km for Bacteroides thetaiotaomicron GH92 alpha-mannosidase 3990 N601A mutant assessed as as mannose release after 16 hrs by HPLC relative to wild type enzyme.

Substrate in data set [2]: OC[C@H]1O[C@H](O[C@H]2[C@@H](O)[C@H](O)[C@@H](CO)O[C@@H]2O)[C@@H](O)[C@@H](O)[C@@H]1O
Described as §1.

Substrate in data set [3]: O=[N+]([O-])c1ccc(O[C@H]2O[C@H](CO)[C@@H](O)[C@H](O)[C@@H]2O)c([N+](=O)[O-])c1
The data set is described as §1.

Substrate in data set [4]: O=[N+]([O-])c1ccc(O[C@H]2O[C@H](CO)[C@@H](O)[C@H](O)[C@@H]2O)cc1
Put plainly: (§2) Activity of Bacteroides thetaiotaomicron GH92 alpha-mannosidase 3990 N601A mutant assessed as as mannose release after 16 hrs by HPLC relative to wild type enzyme.

Substrate in data set [5]: OC[C@H]1O[C@H](O[C@H]2[C@@H](O)[C@H](O)[C@@H](CO)O[C@@H]2O)[C@@H](O)[C@@H](O)[C@@H]1O
The data set is described as §2.

Substrate in data set [6]: O=[N+]([O-])c1ccc(O[C@H]2O[C@H](CO)[C@@H](O)[C@H](O)[C@@H]2O)cc1
Kind of data set: (§3) Ratio of Kcat to Km for Bacteroides thetaiotaomicron GH92 alpha-mannosidase 3990 E533A mutant assessed as as mannose release after 16 hrs by HPLC relative to wild type enzyme.

Substrate in data set [7]: OC[C@H]1O[C@H](O[C@H]2[C@@H](O)[C@H](O)[C@@H](CO)O[C@@H]2O)[C@@H](O)[C@@H](O)[C@@H]1O
The description is as §3.

Substrate in data set [8]: O=[N+]([O-])c1ccc(O[C@H]2O[C@H](CO)[C@@H](O)[C@H](O)[C@@H]2O)c([N+](=O)[O-])c1
The description is as §3.

Substrate in data set [9]: O=[N+]([O-])c1ccc(O[C@H]2O[C@H](CO)[C@@H](O)[C@H](O)[C@@H]2O)cc1
Kind of data set: (§4) Activity of Bacteroides thetaiotaomicron GH92 alpha-mannosidase 3990 E533A mutant assessed as as mannose release after 16 hrs by HPLC relative to wild type enzyme.

Substrate in data set [10]: OC[C@H]1O[C@H](O[C@H]2[C@@H](O)[C@H](O)[C@@H](CO)O[C@@H]2O)[C@@H](O)[C@@H](O)[C@@H]1O
The data set is described as §4.

Substrate in data set [11]: O=[N+]([O-])c1ccc(O[C@H]2O[C@H](CO)[C@@H](O)[C@H](O)[C@@H]2O)cc1
Kind of data set: (§5) Ratio of Kcat to Km for Bacteroides thetaiotaomicron GH92 alpha-mannosidase 3990 Q602A mutant assessed as as mannose release after 16 hrs by HPLC relative to wild type enzyme.

Substrate in data set [12]: OC[C@H]1O[C@H](O[C@H]2[C@@H](O)[C@H](O)[C@@H](CO)O[C@@H]2O)[C@@H](O)[C@@H](O)[C@@H]1O
The data set is described as §5.

Substrate in data set [13]: O=[N+]([O-])c1ccc(O[C@H]2O[C@H](CO)[C@@H](O)[C@H](O)[C@@H]2O)c([N+](=O)[O-])c1
The description is as §5.

Substrate in data set [14]: O=[N+]([O-])c1ccc(O[C@H]2O[C@H](CO)[C@@H](O)[C@H](O)[C@@H]2O)cc1
Put plainly: (§6) Activity of Bacteroides thetaiotaomicron GH92 alpha-mannosidase 3990 Q602A mutant assessed as as mannose release after 16 hrs by HPLC relative to wild type enzyme.

Substrate in data set [15]: OC[C@H]1O[C@H](O[C@H]2[C@@H](O)[C@H](O)[C@@H](CO)O[C@@H]2O)[C@@H](O)[C@@H](O)[C@@H]1O
The description is as §6.

We go through 3 proteins from ChEMBL document CHEMBL1250451, “Mechanistic insights into a Ca2+-dependent family of alpha-mannosidases in a human gut symbiont” (Nat Chem Biol, 2010).

B1: Alpha-1,2-mannosidase (BT_3990) (Bacteroides thetaiotaomicron), Q8A0N1 N601A (protein)
chain: MKRLLLIACILNCTLLSQAKDWTQYVNPLMGSQSTFELSTGNTYPAIARPWGMNFWTPQTGKMGDGWQYTYTANKIRGFKQTHQPSPWINDYGQFSIMPIVGQPVFDEEKRASWFAHKGEVATPYYYKVYLAEHDIVTEMTPTERAVLFRFTFPENDHSYVVVDAFDKGSYIKIIPEENKIIGYTTRNSGGVPENFKNYFIIEFDKPFTYKATVENGNLQENVAEQTTDHAGAIIGFKTRKGEQVNARIASSFISFEQAAANMNELGKDNIEQLAQKGKDAWNQVLGKIEVEGGNLDQYRTFYSCLYRSLLFPRKFYELDANGQPIHYSPYNGQVLPGYMFTDTGFWDTFRCLFPLLNLMYPSVNKEMQEGLINTYLESGFFPEWASPGHRGCMVGNNSASILVDAYMKGVKVDDIKTLYEGLIHGTENVHPEVSSTGRLGYEYYNKLGYVPYDVKINENAARTLEYAYDDWCIYRLAKELKRPKKEISLFAKRAMNYKNLFDKESKLMRGRNEDGTFQSPFSPLKWGDAFTEGNSWHYTWSVFHDPQGLIDLMGGKEMFVTMMDSVFAVPPIFDDSYYGQVIHEIREMTVMNMGNYAHGAQPIQHMIYLYDYAGQPWKAQYWLRQVMDRMYTPGPDGYCGDEDNGQTSAWYVFSALGFYPVCPGTDEYVMGTPLFKKATLHFENGNSLVIDAPNNSTENFYIDSMSFNGADHTKNYLRHEDLFKGGTIKVDMSNRPNLNRGTKEEDMPYSFSKE
With B1, the kcat/Km in data set [1] worked out at 0.05 M⁻¹ s⁻¹; in data set [2] it was 250 M⁻¹ s⁻¹; in [3], 6.17 M⁻¹ s⁻¹. Further, the Km in data set [4] was found to be 9.7 mM; in data set [5] it was 3.3 mM. Moreover, the kcat in data set [4] was 0.00055 s⁻¹; in data set [5], 0.85 s⁻¹.

B2: Alpha-1,2-mannosidase (BT_3990) (Bacteroides thetaiotaomicron), Q8A0N1 E533A (protein)
chain: MKRLLLIACILNCTLLSQAKDWTQYVNPLMGSQSTFELSTGNTYPAIARPWGMNFWTPQTGKMGDGWQYTYTANKIRGFKQTHQPSPWINDYGQFSIMPIVGQPVFDEEKRASWFAHKGEVATPYYYKVYLAEHDIVTEMTPTERAVLFRFTFPENDHSYVVVDAFDKGSYIKIIPEENKIIGYTTRNSGGVPENFKNYFIIEFDKPFTYKATVENGNLQENVAEQTTDHAGAIIGFKTRKGEQVNARIASSFISFEQAAANMNELGKDNIEQLAQKGKDAWNQVLGKIEVEGGNLDQYRTFYSCLYRSLLFPRKFYELDANGQPIHYSPYNGQVLPGYMFTDTGFWDTFRCLFPLLNLMYPSVNKEMQEGLINTYLESGFFPEWASPGHRGCMVGNNSASILVDAYMKGVKVDDIKTLYEGLIHGTENVHPEVSSTGRLGYEYYNKLGYVPYDVKINENAARTLEYAYDDWCIYRLAKELKRPKKEISLFAKRAMNYKNLFDKESKLMRGRNEDGTFQSPFSPLKWGDAFTAGNSWHYTWSVFHDPQGLIDLMGGKEMFVTMMDSVFAVPPIFDDSYYGQVIHEIREMTVMNMGNYAHGNQPIQHMIYLYDYAGQPWKAQYWLRQVMDRMYTPGPDGYCGDEDNGQTSAWYVFSALGFYPVCPGTDEYVMGTPLFKKATLHFENGNSLVIDAPNNSTENFYIDSMSFNGADHTKNYLRHEDLFKGGTIKVDMSNRPNLNRGTKEEDMPYSFSKE
On to B2, for which the kcat/Km in [6] worked out at 0.35 M⁻¹ s⁻¹; in [7], 3 M⁻¹ s⁻¹; in data set [8] it was 6000 M⁻¹ s⁻¹. Further, the Km in data set [9] was 9.3 mM; in data set [10], 1.4 mM. In addition, the kcat in [9] stood at 0.00333 s⁻¹; in data set [10] it was 0.00433 s⁻¹.

B3: Alpha-1,2-mannosidase (BT_3990) (Bacteroides thetaiotaomicron), Q8A0N1 Q602A (protein)
chain: MKRLLLIACILNCTLLSQAKDWTQYVNPLMGSQSTFELSTGNTYPAIARPWGMNFWTPQTGKMGDGWQYTYTANKIRGFKQTHQPSPWINDYGQFSIMPIVGQPVFDEEKRASWFAHKGEVATPYYYKVYLAEHDIVTEMTPTERAVLFRFTFPENDHSYVVVDAFDKGSYIKIIPEENKIIGYTTRNSGGVPENFKNYFIIEFDKPFTYKATVENGNLQENVAEQTTDHAGAIIGFKTRKGEQVNARIASSFISFEQAAANMNELGKDNIEQLAQKGKDAWNQVLGKIEVEGGNLDQYRTFYSCLYRSLLFPRKFYELDANGQPIHYSPYNGQVLPGYMFTDTGFWDTFRCLFPLLNLMYPSVNKEMQEGLINTYLESGFFPEWASPGHRGCMVGNNSASILVDAYMKGVKVDDIKTLYEGLIHGTENVHPEVSSTGRLGYEYYNKLGYVPYDVKINENAARTLEYAYDDWCIYRLAKELKRPKKEISLFAKRAMNYKNLFDKESKLMRGRNEDGTFQSPFSPLKWGDAFTEGNSWHYTWSVFHDPQGLIDLMGGKEMFVTMMDSVFAVPPIFDDSYYGQVIHEIREMTVMNMGNYAHGNAPIQHMIYLYDYAGQPWKAQYWLRQVMDRMYTPGPDGYCGDEDNGQTSAWYVFSALGFYPVCPGTDEYVMGTPLFKKATLHFENGNSLVIDAPNNSTENFYIDSMSFNGADHTKNYLRHEDLFKGGTIKVDMSNRPNLNRGTKEEDMPYSFSKE
Regarding B3, the figures for the kcat/Km in [11], in [12] and in [13] were 0.35 M⁻¹ s⁻¹, 383 M⁻¹ s⁻¹ and 20 M⁻¹ s⁻¹, respectively. The Km in data set [14] stood at 6.6 mM; in [15] it was 16 mM. In addition, the kcat in [14] is 0.00233 s⁻¹; in [15], 6 s⁻¹.

Usually kcat/Km stands for the turnover number divided by the Michaelis constant. One may read the Km as the substrate concentration at which the rate is half of its maximum. The term kcat denotes the maximal rate divided by the concentration of active sites.
